# Results taken from PMC10786891, “Massively parallel profiling of RNA-targeting CRISPR-Cas13d”.
# Positions count from the first letter of the chain named. In names and notes the source's numbering stands.
# T1: EsCas13d, nuclease-dead (Eubacterium siraeum, UniProt B0MS50, R295A;H300A;R849A;H854A)
# T1 sequence: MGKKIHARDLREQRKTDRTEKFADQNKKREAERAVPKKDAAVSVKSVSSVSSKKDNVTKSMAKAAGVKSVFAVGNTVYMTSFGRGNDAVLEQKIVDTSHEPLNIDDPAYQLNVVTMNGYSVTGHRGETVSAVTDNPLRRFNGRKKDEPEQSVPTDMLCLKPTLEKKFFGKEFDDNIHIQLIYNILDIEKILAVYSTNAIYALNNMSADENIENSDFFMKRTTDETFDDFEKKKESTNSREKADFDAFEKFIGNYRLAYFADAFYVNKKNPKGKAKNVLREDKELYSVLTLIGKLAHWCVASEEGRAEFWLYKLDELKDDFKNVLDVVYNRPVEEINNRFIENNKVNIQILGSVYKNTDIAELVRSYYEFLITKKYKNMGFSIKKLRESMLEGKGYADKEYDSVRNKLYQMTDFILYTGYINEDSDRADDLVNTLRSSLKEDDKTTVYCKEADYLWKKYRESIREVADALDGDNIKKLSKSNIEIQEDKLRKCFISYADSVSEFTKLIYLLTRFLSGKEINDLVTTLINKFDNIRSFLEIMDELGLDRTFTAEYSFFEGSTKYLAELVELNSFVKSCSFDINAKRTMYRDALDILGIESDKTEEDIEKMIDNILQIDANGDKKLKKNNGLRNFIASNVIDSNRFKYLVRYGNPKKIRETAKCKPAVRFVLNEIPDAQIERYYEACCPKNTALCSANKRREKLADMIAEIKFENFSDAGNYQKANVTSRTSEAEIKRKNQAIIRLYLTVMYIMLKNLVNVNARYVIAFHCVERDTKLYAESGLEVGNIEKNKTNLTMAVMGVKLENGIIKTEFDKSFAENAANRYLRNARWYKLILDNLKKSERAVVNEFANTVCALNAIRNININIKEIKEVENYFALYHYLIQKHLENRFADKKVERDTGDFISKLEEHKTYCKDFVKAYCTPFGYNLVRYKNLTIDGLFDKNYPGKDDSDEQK
# B1: target 1 C2U,U11C (mixed)
# RNA 1: CACCCGUGCAAAAAUGCAGGGGUCUAAAACUGAGCGGAUAACCUCUCUAUGG
# RNA 2: GGGAAUGGAUCCACAUCUACGAAUUCGUACCAUAGAGAGGCUAUCCGCUUACCGAGAUCGGAAGAGCACACGU
# B2: target 1 A9C,C22A (mixed)
# RNA 1: B1 RNA 1
# RNA 2: B1 RNA 2 with C30A, C41U, A43C, U50C
# B3: target 1 insU 3' of 22,insG 3' of 22 (mixed)
# RNA 1: B1 RNA 1
# RNA 2: GGGAAUGGAUCCACAUCUACGAAUUCGUACUGCAUAGAGAGGUUAUCCGCUCACCGAGAUCGGAAGAGCACACGU
# B4: target 1 U3A,U8C (mixed)
# RNA 1: B1 RNA 1
# RNA 2: B1 RNA 2 with C41U, U44C, U49A, U50C
# B5: target 1 insU 3' of 20,insC 3' of 1 (mixed)
# RNA 1: B1 RNA 1
# RNA 2: GGGAAUGGAUCCACAUCUACGAAUUCGUACCAUUAGAGAGGUUAUCCGCUCACCCGAGAUCGGAAGAGCACACGU
# B6: target 1 insC 3' of 14,insA 3' of 13 (mixed)
# RNA 1: B1 RNA 1
# RNA 2: B3 RNA 2 with U31C, G32A, C33U, U35G, G39C, A40G, G41A
# B7: target 1 U8C,G17A (mixed)
# RNA 1: B1 RNA 1
# RNA 2: B1 RNA 2 with G35A, C41U, U44C, U50C
# B8: target 1 U10C,U11A (mixed)
# RNA 1: B1 RNA 1
# RNA 2: B1 RNA 2 with C41A, U42C, U50C
# B9: target 1 insU 3' of 5,insU 3' of 1 (mixed)
# RNA 1: B1 RNA 1
# RNA 2: GGGAAUGGAUCCACAUCUACGAAUUCGUACCAUAGAGAGGUUAUCCGUCUCAUCCGAGAUCGGAAGAGCACACGU
# B10: target 1 insG 3' of 18,insC 3' of 15 (mixed)
# RNA 1: B1 RNA 1
# RNA 2: B3 RNA 2 with U31C, G32A, C33U, U35G, A36G, G37A, A38G, G39C
# B11: target 1 insG 3' of 9,insG 3' of 3 (mixed)
# RNA 1: B1 RNA 1
# RNA 2: B9 RNA 2 with U44G, C45U, G47C, U48G, C51G, A52C, U53A
# B12: target 1 insU 3' of 12,insA 3' of 10 (mixed)
# RNA 1: B1 RNA 1
# RNA 2: B3 RNA 2 with U31C, G32A, C33U, U35G, A40G, G41U, G42U, U44A
# B13: target 1 insU 3' of 6,insC 3' of 3 (mixed)
# RNA 1: B1 RNA 1
# RNA 2: B9 RNA 2 with G47U, U48G, A52C, U53A
# B14: target 1 insA 3' of 19,insA 3' of 15 (mixed)
# RNA 1: B1 RNA 1
# RNA 2: B3 RNA 2 with U31C, G32A, C33U, U35A, A36G, G37A, A38G, G39A
# B15: target 1 insC 3' of 9,insG 3' of 3 (mixed)
# RNA 1: B1 RNA 1
# RNA 2: B9 RNA 2 with U44C, C45U, G47C, U48G, C51G, A52C, U53A
# B16: target 1 G5A,U10A (mixed)
# RNA 1: B1 RNA 1
# RNA 2: B1 RNA 2 with C41U, U42A, G47A, U50C
# B17: target 1 complement block 8-12 (mixed)
# RNA 1: B1 RNA 1
# RNA 2: B1 RNA 2 with G40C, C41A, U42A, A43U, U44A, U50C
# B18: target 1 insU 3' of 15,insA 3' of 11 (mixed)
# RNA 1: B1 RNA 1
# RNA 2: B3 RNA 2 with U31C, G32A, C33U, U35G, A38U, G39A, A40G, G42U, U43A
# B19: target 1 insC 3' of 22,insG 3' of 7 (mixed)
# RNA 1: B1 RNA 1
# RNA 2: B5 RNA 2 with A32C, U33A, C47G, G48C, C49G, U50C, C51U, A52C, C53A
# B20: target 1 insU 3' of 18,insU 3' of 4 (mixed)
# RNA 1: B1 RNA 1
# RNA 2: B5 RNA 2 with U34A, A35U, C51U, A52C, C53A
# B21: target 1 insC 3' of 20,insU 3' of 18 (mixed)
# RNA 1: B1 RNA 1
# RNA 2: B3 RNA 2 with U31C, G32A, A34U, U35A, A36U
# B22: target 1 insU 3' of 20,insU 3' of 1 (mixed)
# RNA 1: B1 RNA 1
# RNA 2: B5 RNA 2 with C53U
# B23: target 1 A1G,U11C (mixed)
# RNA 1: B1 RNA 1
# RNA 2: B1 RNA 2 with U50C, A51G
# B24: target 1 insC 3' of 18,insC 3' of 8 (mixed)
# RNA 1: B1 RNA 1
# RNA 2: B5 RNA 2 with U34A, A35C, G48C, C49G, U50C, C51U, A52C, C53A
# B25: target 1 insG 3' of 8 (mixed)
# RNA 1: B1 RNA 1
# RNA 2: GGGAAUGGAUCCACAUCUACGAAUUCGUACCAUAGAGAGGUUAUGCCGCUCACCGAGAUCGGAAGAGCACACGU
# B26: target 1 insU 3' of 20,insG 3' of 1 (mixed)
# RNA 1: B1 RNA 1
# RNA 2: B5 RNA 2 with C53G
# B27: target 1 insA 3' of 19,insU 3' of 9 (mixed)
# RNA 1: B1 RNA 1
# RNA 2: B5 RNA 2 with U34A, C46U, G48C, C49G, U50C, C51U, A52C, C53A
# B28: target 1 C6G,C22U (mixed)
# RNA 1: B1 RNA 1
# RNA 2: B1 RNA 2 with C30U, C41U, C46G, U50C
# B29: target 1 insU 3' of 21,insC 3' of 9 (mixed)
# RNA 1: B1 RNA 1
# RNA 2: GGGAAUGGAUCCACAUCUACGAAUUCGUACCUAUAGAGAGGUUACUCCGCUCACCGAGAUCGGAAGAGCACACGU
# B30: target 1 insG 3' of 11,insA 3' of 4 (mixed)
# RNA 1: B1 RNA 1
# RNA 2: GGGAAUGGAUCCACAUCUACGAAUUCGUACCAUAGAGAGGUGUAUCCGCAUCACCGAGAUCGGAAGAGCACACGU
# B31: target 1 C4G,A9C (mixed)
# RNA 1: B1 RNA 1
# RNA 2: B1 RNA 2 with C41U, A43C, C48G, U50C
# B32: target 1 complement block 7-12 (mixed)
# RNA 1: B1 RNA 1
# RNA 2: B1 RNA 2 with G40C, C41A, U42A, A43U, U44A, C45G, U50C
# B33: target 1 del7,del14 (mixed)
# RNA 1: B1 RNA 1
# RNA 2: GGGAAUGGAUCCACAUCUACGAAUUCGUACCAUAGAGGGUUAUCGCUCACCGAGAUCGGAAGAGCACACGU
# Molecular target: T1, EsCas13d, nuclease-dead
# Assay: crRNA (strand 1, pre-loaded); Mg2+; 40 mM Tris-HCl pH 7.5, 150 mM NaCl, 6 mM MgCl2, 1 mM DTT, 0.1% Tween-20, 0.2 mg/ml BSA; 25 C; 10 min per concentration, then washed
# Conditions: tags: His6-TwinStrep-SUMO cleaved; N-terminal SNAP kept (SNAP-Surface 488); label: 3' end held by stalled T7 RNA polymerase
row,Binder,Kd [nM]
1,B1,9.5 ± 0.4
2,B2,47 ± 9
3,B3,30.3 ± 2.5
4,B4,7.6 ± 0.7
5,B5,10.1 ± 1
6,B6,28 ± 7
7,B7,61 ± 10
8,B8,35.7 ± 2.9
9,B9,13.5 ± 0.6
10,B10,62 ± 11
11,B11,10.3 ± 0.5
12,B12,10.3 ± 0.4
13,B13,10.5 ± 0.7
14,B14,16.4 ± 1.8
15,B15,7.3 ± 0.5
16,B16,84 ± 16
17,B17,12.7 ± 0.8

row,Binder,Kd [nM]
1,B18,27.8 ± 1.7
2,B19,16.2 ± 3
3,B20,20.2 ± 1.3
4,B21,6.12 ± 0.3
5,B22,14.1 ± 1.4
6,B23,8.4 ± 0.5
7,B24,44.9 ± 3
8,B25,12.9 ± 0.5
9,B26,11.8 ± 1.2
10,B27,32.5 ± 3.1
11,B28,14 ± 1.1
12,B29,40.1 ± 2.9
13,B30,~63
14,B31,7.2 ± 0.7
15,B32,16.6 ± 0.7
16,B33,18 ± 0.6
